Laboratory results from the supplement of paper PMC9112550, “Optimization of the antimicrobial peptide Bac7 by deep mutational scanning” (BMC Biology, 2022).

System: Escherichia coli TOP10
Assay: shrunken log2 fold change of peptide-encoding DNA abundance (4.5 h post-induction vs induction); higher = less antimicrobial activity (less host growth inhibition)
Conditions: time post-induction: 4.5 h; library: site-saturation at positions 5, 18, 19, 20
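Further: peptides expressed intracellularly from a pBAD plasmid library in pooled LB shake-flask culture, induced with 0.3% L-arabinose, DNA abundance read by NGS, three biological replicates, DESeq2 with apeglm shrinkage.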

Sequence | shrunken log2 fold change
RRIRYRPPRLPRPRPRPPIEPRP | -0.154
RRIRDRPPRLPRPRPRPGLIPRP | 0.0516
RRIRCRPPRLPRPRPRPMSMPRP | -0.212
RRIRCRPPRLPRPRPRPSAPPRP | 0.0889
RRIRARPPRLPRPRPRPHFPPRP | 0.0382
RRIRFRPPRLPRPRPRPSANPRP | -0.395
RRIRHRPPRLPRPRPRPPMTPRP | -0.175
RRIRERPPRLPRPRPRPHQRPRP | 0.0138
RRIRMRPPRLPRPRPRPRLRPRP | 1.17
RRIRTRPPRLPRPRPRPPNNPRP | -0.377
RRIRTRPPRLPRPRPRPFLLPRP | -0.743
RRIRWRPPRLPRPRPRPQAVPRP | 0.232
RRIRFRPPRLPRPRPRPIRIPRP | -0.223
RRIRSRPPRLPRPRPRPITMPRP | -0.639
RRIRGRPPRLPRPRPRPYDDPRP | -0.199
RRIRWRPPRLPRPRPRPIGWPRP | 0.534
RRIRMRPPRLPRPRPRPAQIPRP | -0.0435
RRIRIRPPRLPRPRPRPRDRPRP | -0.0241
RRIRMRPPRLPRPRPRPMSPPRP | 0.00473
RRIRFRPPRLPRPRPRPRIQPRP | 0.018
RRIRHRPPRLPRPRPRPGVCPRP | -0.263
RRIRMRPPRLPRPRPRPMEVPRP | 0.0214
RRIRFRPPRLPRPRPRPYQVPRP | -0.153
RRIRVRPPRLPRPRPRPKHAPRP | 0.133
RRIRFRPPRLPRPRPRPEEFPRP | -0.0316

Sequence | shrunken log2 fold change
RRIRPRPPRLPRPRPRPHMLPRP | -0.226
RRIRERPPRLPRPRPRPPLTPRP | -0.0766
RRIRMRPPRLPRPRPRPQPGPRP | 0.778
RRIRCRPPRLPRPRPRPWNSPRP | -0.529
RRIRDRPPRLPRPRPRPNTDPRP | -0.179
RRIRIRPPRLPRPRPRPYHYPRP | -0.415
RRIRERPPRLPRPRPRPEWFPRP | 0.0631
RRIRDRPPRLPRPRPRPHHIPRP | -0.361
RRIRMRPPRLPRPRPRPIDWPRP | 0.483
RRIRWRPPRLPRPRPRPCTHPRP | 0.0298
RRIRMRPPRLPRPRPRPKDEPRP | 1.75
RRIRFRPPRLPRPRPRPKWYPRP | -0.388
RRIRSRPPRLPRPRPRPGKYPRP | -0.759
RRIRFRPPRLPRPRPRPEEGPRP | 0.00408
RRIRWRPPRLPRPRPRPSTQPRP | 0.0274
RRIRDRPPRLPRPRPRPFHTPRP | -0.569
RRIRIRPPRLPRPRPRPNAFPRP | -0.0665
RRIRHRPPRLPRPRPRPHSYPRP | -0.191
RRIRERPPRLPRPRPRPIGCPRP | -0.00631
RRIRRRPPRLPRPRPRPINIPRP | -0.256
RRIRDRPPRLPRPRPRPYRHPRP | -0.0137
RRIRVRPPRLPRPRPRPMKWPRP | -0.068
RRIRPRPPRLPRPRPRPPAHPRP | 0.466
RRIRYRPPRLPRPRPRPGQAPRP | 0.0475
RRIRIRPPRLPRPRPRPFRIPRP | -0.103
